Experimental data: publication PMC7929502

Target: T1, human Derlin-1 (hDERL1), full length, purified from Expi293F cells (human), Q9BUN8
T1 chain: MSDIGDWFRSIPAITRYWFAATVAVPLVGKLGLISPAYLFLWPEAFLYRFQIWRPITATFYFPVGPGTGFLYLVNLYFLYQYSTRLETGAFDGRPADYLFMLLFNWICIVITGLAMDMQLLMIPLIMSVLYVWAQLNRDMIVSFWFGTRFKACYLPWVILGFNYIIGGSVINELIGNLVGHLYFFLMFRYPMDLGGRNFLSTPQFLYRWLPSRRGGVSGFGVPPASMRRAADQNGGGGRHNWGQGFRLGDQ
Test: cryo-EM structure
Details: remark: other sources report otherwise

B1: human Derlin-1 (hDERL1), full length, purified from Expi293F cells, Q9BUN8-1 1-251 (natural protein)
chain: MSDIGDWFRSIPAITRYWFAATVAVPLVGKLGLISPAYLFLWPEAFLYRFQIWRPITATFYFPVGPGTGFLYLVNLYFLYQYSTRLETGAFDGRPADYLFMLLFNWICIVITGLAMDMQLLMIPLIMSVLYVWAQLNRDMIVSFWFGTRFKACYLPWVILGFNYIIGGSVINELIGNLVGHLYFFLMFRYPMDLGGRNFLSTPQFLYRWLPSRRGGVSGFGVPPASMRRAADQNGGGGRHNWGQGFRLGDQ
stoichiometry N: 4
